Measured values: IntAct's records for PubMed 19937093

B1: TNF receptor-associated factor 4 (Homo sapiens), Q9BUZ4 (parent)
chain: MPGFDYKFLEKPKRRLLCPLCGKPMREPVQVSTCGHRFCDTCLQEFLSEGVFKCPEDQLPLDYAKIYPDPELEVQVLGLPIRCIHSEEGCRWSGPLRHLQGHLNTCSFNVIPCPNRCPMKLSRRDLPAHLQHDCPKRRLKCEFCGCDFSGEAYESHEGMCPQESVYCENKCGARMMRRLLAQHATSECPKRTQPCTYCTKEFVFDTIQSHQYQCPRLPVACPNQCGVGTVAREDLPGHLKDSCNTALVLCPFKDSGCKHRCPKLAMARHVEESVKPHLAMMCALVSRQRQELQELRRELEELSVGSDGVLIWKIGSYGRRLQEAKAKPNLECFSPAFYTHKYGYKLQVSAFLNGNGSGEGTHLSLYIRVLPGAFDNLLEWPFARRVTFSLLDQSDPGLAKPQHVTETFHPDPNWKNFQKPGTWRGSLDESSLGFGYPKFISHQDIRKRNYVRDDAVFIRAAVELPRKILS

Variants of: B1
Details: with SMURF1, Q9HCE7-2
Chain of SMURF1, Q9HCE7-2 (Q9HCE7 other isoform, or with tags, fused parts or gaps): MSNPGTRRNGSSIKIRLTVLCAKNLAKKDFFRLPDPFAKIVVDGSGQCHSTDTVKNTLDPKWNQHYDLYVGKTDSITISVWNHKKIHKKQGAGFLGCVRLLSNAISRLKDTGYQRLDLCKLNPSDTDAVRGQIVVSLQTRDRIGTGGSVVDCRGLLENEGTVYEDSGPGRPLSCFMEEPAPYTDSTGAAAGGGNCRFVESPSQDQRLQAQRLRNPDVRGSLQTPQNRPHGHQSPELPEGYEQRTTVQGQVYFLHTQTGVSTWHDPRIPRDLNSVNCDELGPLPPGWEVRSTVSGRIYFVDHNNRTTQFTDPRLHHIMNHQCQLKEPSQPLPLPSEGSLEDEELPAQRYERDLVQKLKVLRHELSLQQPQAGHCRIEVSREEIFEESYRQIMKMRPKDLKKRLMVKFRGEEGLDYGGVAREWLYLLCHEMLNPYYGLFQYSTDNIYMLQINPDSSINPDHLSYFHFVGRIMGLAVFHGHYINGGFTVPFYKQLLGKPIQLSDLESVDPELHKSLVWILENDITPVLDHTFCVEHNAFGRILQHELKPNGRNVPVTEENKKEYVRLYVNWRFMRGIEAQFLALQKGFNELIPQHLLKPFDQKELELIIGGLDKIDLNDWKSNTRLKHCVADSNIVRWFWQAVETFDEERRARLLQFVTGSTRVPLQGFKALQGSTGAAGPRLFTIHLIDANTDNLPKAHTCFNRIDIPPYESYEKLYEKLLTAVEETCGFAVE

Row | Variant | effect of a mutation on the interaction
1 | P60A;L61A;D62A;Y63A;P194A;C195A;T196A;Y197A;P335A;F337A;Y338A | disrupting interaction
